Measured values reported in patent publication US20230295301A1 (SHANGHAI JUNSHI BIOSCIENCES, published 2023).
Blank lines part the entries; values can stand above or below the binder they belong to.

Key:
BTLA on 293T-BTLA cells = target: T1, BTLA on 293T-BTLA cells (UniProt Q7Z6A9 31-289, limits assumed); assay: flow cytometry on 293T-BTLA cells
T1 construct: whole, on cells
Description: (§1) Then the above cell mixture was incubated with 5 μL of APC-labeled murine secondary antibody (Southern Biotech) at 4° C. for 20 min, and the secondary antibody bound onto the cells was detected. The control antibody was selected from commercially available CTLA4 monoclonal antibody L3D10 (BioLegend) and TIGIT monoclonal antibody MBSA43 (eBioscience).

[1] = target: T2, TIGIT on 293T-TIGIT cells (UniProt Q495A1 22-244, limits assumed); assay: flow cytometry on 293T-TIGIT cells
T2 construct: whole, on cells
T2 sequence (looked up): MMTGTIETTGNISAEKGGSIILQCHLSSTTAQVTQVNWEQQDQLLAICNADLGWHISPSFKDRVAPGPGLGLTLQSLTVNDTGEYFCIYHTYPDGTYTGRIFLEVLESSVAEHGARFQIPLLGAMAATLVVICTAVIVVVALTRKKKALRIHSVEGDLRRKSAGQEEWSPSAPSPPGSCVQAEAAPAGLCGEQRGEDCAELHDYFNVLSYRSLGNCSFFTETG
Description: as §1

huCTLA-4 = target: T3, huCTLA-4 (human, UniProt P16410 36-161); assay: ForteBio
T3 construct: also called human CTLA (huCTLA) antigen; huCTLA4 recombinant protein
T3 sequence: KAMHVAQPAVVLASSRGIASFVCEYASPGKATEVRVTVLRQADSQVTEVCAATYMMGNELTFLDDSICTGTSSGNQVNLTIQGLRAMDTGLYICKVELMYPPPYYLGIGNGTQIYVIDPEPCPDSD

huCTLA4 N-his G28A = target: T4, huCTLA4 N-his G28A (human, UniProt P16410 37-162); assay: ELISA: huCTLA4 N-his G28A coated at 1.0 µg/mL, huJS007-47 2.5-fold dilutions from 1000 to 0.042 ng/mL, HRP goat anti-human IgG (Fc), OD 450-620 nm
T4 construct: … changed to …; not shown: N-terminal his-tag
Description: (§2) The huCTLA-4 mutants used in the ELISA assays included non-mutated HXT huCTLA4 his, and mutated huCTLA4 N-his P27A, huCTLA4 N-his G28A, huCTLA4 N-his K29A and huCTLA4 N-his T31A. HuCTLA-4 his and its mutants were diluted with PBS (Hyclone) to 1.0 μg/mL, and a plate was coated with the dilution, incubated in an incubator at 37° C. for 90 min, washed and then blocked with 2% BSA. After the plate was washed, the monoclonal antibody huJS007-47 (serially diluted 2.5-fold with 2% BSA from 1000 ng/mL to 0.042 ng/mL) was added. The plate was incubated at 37° C. for 60 min and washed. A 1:5000 diluted HRP-conjugated goat anti-human antibody IgG (Fc specific) (Sigma, Catalog No. A0170) was used for detection. The plate was incubated at 37° C. for 60 min and then incubated with HRP substrate TMB (Sigma, Catalog No. T2885) at 37° C. for 15 min for color development. Finally, 2 M of hydrochloric acid was added to terminate the color development; during the addition, bubbles were avoided. Reading (wavelength: 450/620 nm) was done within 10 min using a microplate reader.

huCTLA4 N-his K29A = target: T5, huCTLA4 N-his K29A (human, UniProt P16410 37-162); assay: ELISA: antigen coated at 1.0 µg/mL, huJS007-47 2.5-fold dilutions from 1000 to 0.042 ng/mL, HRP goat anti-human IgG (Fc), OD 450-620 nm; unit from the axis 'Log:ng/mL'
T5 construct: … changed to …; not shown: N-terminal his-tag
Description: as §2

hCTLA4 Nhis T31A = assay: as above
Description: as §2

huCTLA4 N-his P27A = target: T6, huCTLA4 N-his P27A (human, UniProt P16410 37-162); assay: as above
T6 construct: … changed to …; not shown: N-terminal his-tag
Description: as §2

[2] = target: T7, HXT huCTLA4 his (non-mutated) (human, UniProt P16410 37-162); assay: as above
T7 construct: not shown: his-tag
T7 sequence: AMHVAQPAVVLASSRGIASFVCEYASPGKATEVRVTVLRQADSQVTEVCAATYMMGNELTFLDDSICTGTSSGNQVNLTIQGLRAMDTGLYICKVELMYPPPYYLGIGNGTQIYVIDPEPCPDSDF
Description: as §2

huCTLA-4 ECD (his-tag) = target: T8, huCTLA-4 ECD (his-tag) (human, UniProt P16410 37-162); assay: ELISA: huCTLA-4 his coated at 1.0 µg/mL, antibody 2.5-fold dilutions from 1000 ng/mL, HRP goat anti-human IgG (Fc), OD 450 nm; unit from the axis 'Log ng/mL'
T8 construct: also called HX1 hCTLA4 his; HX1 huCTLA4 his; not shown: his-tag
T8 sequence: T7 sequence
Description: HX1 hCTLA4 his was diluted with PBS (Hyclone) to 1.0 μg/mL, and the dilution was added to a microplate at 100 μL/well. The plate was let stand in an incubator at 37° C. and coated for 90 min and then washed, and 2% BSA was added to the plate at 200 μL/well. The plate was incubated in an incubator at 37° C. for 90 min and then washed. The chimeric antibodies in Table 3 and the control antibody (ipilimumab) were diluted with a diluent (2% BSA) to 1000 ng/mL. The dilution performed each time was not higher than 10-fold. Then, the chimeric antibodies and the control antibody were serially diluted 2.5-fold on a sample dilution plate. All the chimeric antibody solutions and the control antibody solution were added to a microplate at 100 μL/well. The plate was incubated in an incubator at 37° C. for 60 min and then washed. A horseradish peroxidase (HRP)-conjugated goat anti-human antibody IgG (Sigma, Catalog No. A0170) (Fc specific) was diluted 5000-fold with 2% BSA, and the dilution was added to the microplate at 100 μL/well. The plate was incubated in an incubator at 37° C. for 60 min and then washed. The color development solution TMB was added at 100 μL/well, during which bubbles were avoided. […] Reading (wavelength: 450/620 nm) was done within 10 min using a microplate reader.

[3] = target: T9, huCTLA-4 expressed on cells (human, UniProt P16410 36-223); assay: FACS: huCTLA-4-expressing CHO cells, antibody 3-fold dilutions from 10 µg/mL, PE anti-human IgG; unit from the axis 'log(JS007 concentration (ng/mL))'
T9 construct: the construct in the cells is not described; also called HuCTLA-4-expressing CHO cells; huCTLA-4-expressing Jurkat effector cells
T9 sequence: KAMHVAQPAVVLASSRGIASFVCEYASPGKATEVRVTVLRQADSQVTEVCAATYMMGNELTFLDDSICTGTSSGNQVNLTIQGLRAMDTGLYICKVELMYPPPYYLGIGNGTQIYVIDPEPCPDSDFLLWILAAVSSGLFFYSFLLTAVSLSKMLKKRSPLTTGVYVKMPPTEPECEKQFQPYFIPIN
Description: 6.2 FACS Detection of Binding of Chimeric Antibodies to huCTLA-4-Expressing Cells HuCTLA-4-expressing cells (constructed in-house by Junmeng; CHO from ATCC) were co-incubated with each of the chimeric antibodies in Table 3 and the control antibody (ipilimumab) (serially diluted 3-fold from an initial concentration of 10 μg/mL) at room temperature for 30 min, and then a fluorescent secondary antibody (PE-anti human IgG) was added to detect the binding of the chimeric antibodies to the huCTLA-4-expressing cells.

Kd (huCTLA-4): < 0.001 nM
B1: 3E6.1 (antibody, V domains shown)
VH: EVKLVESGGGLVQPGGSLRLSCATSGFTFTDYYMSWVRQPPGKALEWLGFIRNKANGFTAEYSASVKGRFTISRDNSQSILYLQMNTLRAEDSATYYCARDSLAYPHYYAMDYWGQGTSVTVSS
VL: QIVLTQSPALMSASPGEKVTMTCSASSSVSYMYWYQQKPRSSPKPWIYLTSNLASGVPVRFSGSGSGTSYSLTISSMEAEDAATYYCQQWSSNSFTFGSGTKLEIK
notes: Murine hybridoma antibody
binding result (BTLA on 293T-BTLA cells): no binding (tested: 1 µg of hybridoma antibody) | binding result [1]: no binding (tested: 1 µg of hybridoma antibody)

binding result (huCTLA4 N-his G28A): no binding (tested: 1000 ng/mL (log 3)) | EC50 (huCTLA4 N-his K29A): 0.0467 µg/mL | EC50 (hCTLA4 Nhis T31A): 0.0136 µg/mL | EC50 (huCTLA4 N-his P27A): 0.0333 µg/mL | EC50 [2]: 0.0136 µg/mL
B2: huJS007-47 (antibody, human IgG1, kappa, V domains shown)
VH: QVQLQESGPGLVKPSQTLSLTCTVSAYSITSGYYWNWIRQHPGKGLEWIGYIGYDGSNNYNPSLKSRVTISRDTSKNQFSLKLSSVTAADTAVYYCARDYYSGYFDSWGQGTTLTVSS
VL: DIQMTQSPSSLSASVGDRVTITCRASQNVGTYVAWYQQKPGKVPKPLIYSTSYRYSGVPSRFSGSGSGTDFTLTISSLQPEDVATYFCHQYDTYPLTFGAGTKLELKR
notes: also called JS007 antibody; monoclonal antibody huJS007-47

EC50 (huCTLA-4 ECD (his-tag)): ~4010 µg/mL
B3: JS007-11 (antibody, V domains shown)
VH: EVQLQQSGAELVKSGASVKLSCTGSGFNIKDTYMHWVKQRPEEGLEWIGRIDPANGNTKSDPKFQGKATITADTSSNTAYLQLSSLTSVDTAVYYCARSMTTDPFTYWGQGTLVTVSS
VL: DIVMTQSQKFMSTSVGDSVSVTCKASQNVGTYVAWYQQKPGQSPKPLIYSTSYRYSGVPDRFTGSGSGTDFTLTISNVQSEDLAEYFCHQYDTYPLTFGAGTKLELK
notes: also called chimeric antibody JS007-11 (4B7.1-1 VH with 4B7.1-1 VL)

EC50 (huCTLA-4 ECD (his-tag)): ~788 µg/mL | EC50 [3]: 0.00418 µg/mL
B4: JS007-1 (antibody, V domains shown)
VH: DVQLQESGQGLVKPSQSLSLTCSVTGYSITSGYYWNWIRQFPGNKLEWLGYIGYDGSNYYNPSLKNRISITRDTSKNQFFLKLNSVTSEDTATYFCARNYYSGYFDFWGQGTTLTVSS
VL: DIVMTQSQKFMSTSVGDRVSVTCKASQIVGSYVAWYQQKLGQSPKALIYSTSYRHSGVPDRFTGSGSGTDFTLTISNVQSEDLAEYFCQQHHLPLTFGAGTKLEIK
notes: also called chimeric antibody JS007-1 (1A5.1 VH with 1A5.1 VL)

Kd (huCTLA-4): 1.74 nM
B5: 1A5.1 (antibody, V domains shown)
VH: B4 VH
VL: B4 VL
notes: Murine hybridoma antibody
binding result (BTLA on 293T-BTLA cells): no binding (tested: 1 µg of hybridoma antibody) | binding result [1]: no binding (tested: 1 µg of hybridoma antibody)

Kd (huCTLA-4): < 0.001 nM
B6: 5B9.1 (antibody, V domains shown)
VH: EVQLQQSGPELVKPGASVKMSCKASGYTFTDYYMKWMKQSHGKSLEWIGHINPNNGDTFYNQKFTGKATLTVDKSSSTASMHLNSLTSEDSAVYYCARGGDGRGTWFAYWGQGTLVTVSS
VL: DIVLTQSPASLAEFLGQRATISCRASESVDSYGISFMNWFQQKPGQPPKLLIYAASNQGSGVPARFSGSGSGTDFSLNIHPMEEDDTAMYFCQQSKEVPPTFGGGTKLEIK
notes: Murine hybridoma antibody
binding result (BTLA on 293T-BTLA cells): no binding (tested: 1 µg of hybridoma antibody) | binding result [1]: no binding (tested: 1 µg of hybridoma antibody)
